Laboratory results from IntAct's records for PubMed 26749241.

B1: Succinate dehydrogenase assembly factor 1, mitochondrial (Homo sapiens), A6NFY7 (parent)
chain: MSRHSRLQRQVLSLYRDLLRAGRGKPGAEARVRAEFRQHAGLPRSDVLRIEYLYRRGRRQLQLLRSGHATAMGAFVRPRAPTGEPGGVGCQPDDGDSPRNPHDSTGAPETRPDGR
partner: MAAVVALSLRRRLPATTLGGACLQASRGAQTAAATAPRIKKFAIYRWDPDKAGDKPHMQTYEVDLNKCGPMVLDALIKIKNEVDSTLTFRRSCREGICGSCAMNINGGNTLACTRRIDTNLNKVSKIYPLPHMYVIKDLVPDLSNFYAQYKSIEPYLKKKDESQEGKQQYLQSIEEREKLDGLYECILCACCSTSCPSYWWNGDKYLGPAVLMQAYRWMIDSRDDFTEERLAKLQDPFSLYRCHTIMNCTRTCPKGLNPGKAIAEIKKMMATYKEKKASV
B2: Succinate dehydrogenase [ubiquinone] iron-sulfur subunit, mitochondrial (Homo sapiens), P21912 (parent)
chain: B1 partner
partner: B1 chain
B3: Succinate dehydrogenase assembly factor 1, mitochondrial (Homo sapiens), A6NFY7 (parent)
chain: B1 chain
partner: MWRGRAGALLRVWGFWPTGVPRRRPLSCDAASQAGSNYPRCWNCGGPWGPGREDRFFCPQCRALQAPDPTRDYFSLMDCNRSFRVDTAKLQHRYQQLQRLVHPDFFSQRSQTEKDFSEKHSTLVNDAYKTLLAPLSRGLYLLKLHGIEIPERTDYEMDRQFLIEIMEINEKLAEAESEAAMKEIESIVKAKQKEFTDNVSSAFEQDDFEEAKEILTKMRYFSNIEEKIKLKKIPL

Variants of: B1
Details: with sdhb_human SDHB

Variant | effect of a mutation on the interaction
L53A;Y54A;R55A;L61A;L64A;R65A | disrupting interaction strength
L53A;Y54A;R55A;R56A;G57A;R58A;R59A | disrupting interaction strength

Results, then the variant that gave them:

effect of a mutation on the interaction | Variant
decreasing interaction strength | L61A;L64A;R65A
decreasing interaction strength | R56A;G57A;R58A;R59A

Variants of: B1
Details: with sdhb_human SDHB
Remark: another data set of the same source

effect of a mutation on the interaction | Variant
disrupting interaction strength | G57R
decreasing interaction strength | L53A;Y54A;R55A
decreasing interaction strength | R55P
with no effect | L14A;Y15A;R16A

Variants of: B2
Details: with sdhf1_human SDHAF1, A6NFY7

effect of a mutation on the interaction | Variant
disrupting interaction strength | S198A;Y199A;W200A;W201A;N202A
decreasing interaction strength | F146A
disrupting interaction strength | L183A;Y184A;E185A
increasing interaction strength | R177A;K179A;L180A;D181A
increasing interaction strength | L171A;Q172A;S173A
disrupting interaction strength | F146A;Y147A;Q149A;Y150A;K151A;I153A

Variants of: B3
Details: with hsc20_human HSCB

Variant | effect of a mutation on the interaction
L14V;Y15F;R16K | with no effect
Y52S;R56D | decreasing interaction strength
L14A;Y15A;R16A | disrupting interaction strength
L53A;Y54A;R55A | with no effect
S13Y;D17R | disrupting interaction strength

Now from value to variant:

effect of a mutation on the interaction | Variant
with no effect | R55P
with no effect | G57R
